{
  "source": "paper PMC6681757",
  "about": "“Site-specific phosphorylation of myosin binding protein-C coordinates thin and thick filament activation in cardiac muscle” (Proceedings of the National Academy of Sciences of the …, 2019)",
  "molecular_target": "T1, myosin S2Δ, the first 126 amino acids of myosin S2 (cardiac myosin)",
  "T1 construct": "cardiac myosin heavy chain, S2 domain, first 126 amino acids of S2",
  "assay": "MST; C1mC2 species (or native full-length cMyBP-C) titrated against myosin S2Δ; normalized MST curves; conditions in SI Appendix",
  "details": "both partners purified",
  "data": [
    {"binder": "C1mC2-S288A monophosphorylated by PKA (C1mC2-S288A-1P) (domain or fragment, one phosphate (monophosphorylated by PKA); the phosphorylated residue is not given) PIGLFLMRPQDGEVTVGGSIVFSARVAGASLLKPPVVKWFKGKWVDLSSKVGQHLQLHDSYDRASKVYLFELHITDAQATSAGGYRCEVSTKDKFDSCNFNLTVHEAIGSGDLDLRSAFRRTSLAGTGRRTADSHEDAGTLDFSSLLKKSSSFRRDSKLEAPAEEDVWEILRQAPPSEYERIAFQHGVTDLRGMLKRLKGMKHDEKKSTAFQKKLEPAYQVNKGHKIRLTVELADPDAEVKWLKNGQEIQMSGRYIFESIGAKRTLTISQCSLADDAAYQCVVGGEKCSTELFVKEP", "values": [
      {"measurement": "Kd", "result": "~20", "unit": "µM"}
    ]}
  ]
}
